How the values were obtained:
[1] = target: T1, recombinant human CFP HIS-tagged (human, UniProt P27918 28-469); assay: flow cytometry; CFP-HIS on enriched mouse NK cells
T1 construct: Secreted from CHO cells, purified on Ni-NTA and by size exclusion; also called huCFP-HIS; HuCFP-HIS; not shown: HIS tag inserted through the reverse primer (C-terminal)

[2] = target: T1, recombinant human CFP HIS-tagged; assay: flow cytometry; CFP-HIS on cells

T1 sequence (P27918 28-469): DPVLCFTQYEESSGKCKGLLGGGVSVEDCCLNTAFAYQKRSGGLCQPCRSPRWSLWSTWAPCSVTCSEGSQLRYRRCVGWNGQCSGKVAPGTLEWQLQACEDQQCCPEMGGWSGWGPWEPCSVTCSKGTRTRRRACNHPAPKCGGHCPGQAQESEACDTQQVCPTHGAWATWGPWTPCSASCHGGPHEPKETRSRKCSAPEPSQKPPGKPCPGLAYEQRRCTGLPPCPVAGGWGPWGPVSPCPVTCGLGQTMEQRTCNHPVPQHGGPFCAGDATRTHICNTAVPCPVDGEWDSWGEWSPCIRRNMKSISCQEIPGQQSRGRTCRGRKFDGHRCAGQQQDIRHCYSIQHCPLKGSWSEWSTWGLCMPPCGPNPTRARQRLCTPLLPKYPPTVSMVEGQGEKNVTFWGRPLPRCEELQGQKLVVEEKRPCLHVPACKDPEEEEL

Row | Binder | binding result [1] | binding result [2]
1 | mouse NKp46 on Ncr1 WT/WT enriched mouse NK cells (receptor, UniProt Q8C567 17-325, looked up, whole, on cells; also called Ncr1 WT/WT NK cells) QRINTEKETLPKPIIWAKPSIMVTNGNSVNIWCQGAQSASEYQLYFEGSFFALERPKPSRSMNKVRFFISQMTSHTAGIYTCFYQSGELWSKSSNPLKLVVTGLYDTPNLWVYPRPEVTLGENVTFFCQLKTATSKFFLLKERGSNHIQNKYGNIQAEFPMGPVTRAHRGTYRCFGSYNDYAWSFPSEPVTLLITGGVENSSLAPTDPTSSLDYWEFDLSTNESGLQKDSAFWDHTTQNLIRIGLACIILITLVWLLTEDWLSKRKDHEEANRLTNWECRRRWRMQHYFEEEQRNAISMMELKATPGAL | binds | 
2 | NKp30 on DOMsp30 cells (receptor, UniProt O14931 19-135, looked up, also called DOMsP cells expressing NKp30) LWVSQPPEIRTLEGSSAFLPCSFNASQGRLAIGSVTWFRDEVVPGKEVRNGTPEFRGRLAPLASSRFLHDHQAELHIRDVRGHDASIYVCRVEVLGLGVGTGNGTRLVVEKEHPQLG |  | no binding (tested: 10ug/ml)

— patent WO2018083080A2 (dated 2018)
